Assay results published in patent US20110097340A1 (SCHERING, published 2011).
Positions count from the first letter of the chain named.

B1: XPA.10.064 IgG2 (antibody, V domains shown)
VH: EVQLVQSGAEVRKPGASVKVSCKASGYSFTGHYIHWVRQAPGQGLEWMGWINPYSGGTNFPREFQGRVTMTRDTSVNTVYMELTRLTSDDTSVYYCARDHRIVGGLDYWGQGTLVTVSS
VL: SYVLTQPPSASGTPGQRVTISCSGSSSNIGINYVYWYQQLPGTAPKLLIYRNDQRPSGVPDRFSGSKSGTSASLAISGLRSEDEADYYCATWDDSLSGVVFGGGTKVTVL
notes: Converted to IgG with gamma-2 heavy chain constant region; Expressed in 293E cells; also called parental XPA.10.064; VPA.10.064
B2: XPA.10.072 IgG2 (antibody, V domains shown)
VH: B1 VH with E1R, V2L, V37A
VL: B1 VL with S1Q, Y2S, I29L, I31S, Y33F, D53H, T91S, S97R, G98V, V107L
notes: IgG2 (gamma-2 constant region); also called XPA.072; VPA.10.072

Tests used:
human VEGF165 [1] = molecular target: T1, human VEGF165 (human, UniProt P15692 207-395); experiment: Biacore, IgG2 (summary table); lower end of the range of IgG2 Biacore results
T1 construct: Recombinant (R&D Systems 293-VE; sf21- or HEK 293-expressed depending on the assay); Biotinylated in the DELFIA assay; also called hVEGF165; rHu-VEGF165
Method: (§1) Dilution and running buffer for these experiments was HBS-EP (Biacore) with 1:50 dilution of Chemiblocker® (Chemicon). […] Antibody concentrations were approximately 0.5 μg/ml. hVEGF₁₆₅ expressed from sf21 cells was injected over five minutes at 30 μl/minute using the Kinject feature with 15 minute dissociation over fc1 and 2. […] Regenerations were performed with two injections of 100 mM HCl at 50 μl/minutes for twelve seconds each. Data was processed in Scrubber2 and fit by a 1:1 Langmuir interaction model after double referencing of the control flow cell and blank injections.

human VEGF165 [2] = molecular target: T1, human VEGF165; experiment: Biacore competition, inhibition of hVEGF165 binding to immobilized VEGF-R1
Method: (§2) VEGF receptor (R&D Systems) was immobilized on the CM5 chip at a density of approximately […] via amine coupling (Biacore). VEGF-R2 was immobilized on fc2 and VEGF-R1 was immobilized on fc4. Flow cells 1 and 3 served as references, and were activated and blocked in the same manner as the receptor immobilized flow cells. […] Samples were incubated for at least one hour prior to initiation of the Biacore analysis run. […] Samples were injected at 10 μl/minute for 1.5 minutes over all flow cells.
(§3) For data analysis, the slope of a linear portion of association (30 seconds to one minute) of the association phase was determined with a linear fit. […] Data was plotted in GraphPad Prism and fit with a sigmoidal dose response curve to calculate the EC₅₀.

human VEGF165 [3] = molecular target: T1, human VEGF165; experiment: Biacore competition, inhibition of hVEGF165 binding to immobilized VEGF-R2
Method: as §2, §3

human VEGF165 [4] = molecular target: T1, human VEGF165; experiment: cell-based or functional assay
murine VEGF165 [5] = molecular target: T2, murine VEGF165 (murine, UniProt Q00731-2 27-190); experiment: sandwich ELISA, antibody coated; epitope ELISA, fold over CHO background: at background, no binding seen
T2 construct: also called mVEGF165; rMu-VEGF165
T2 sequence (looked up): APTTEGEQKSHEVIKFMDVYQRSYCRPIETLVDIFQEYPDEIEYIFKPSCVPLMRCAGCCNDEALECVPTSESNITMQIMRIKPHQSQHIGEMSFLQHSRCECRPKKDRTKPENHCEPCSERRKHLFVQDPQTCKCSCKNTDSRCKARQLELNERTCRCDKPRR
Method: (§4) The plate was blocked with 30% ChemiBlock™ reagent (Millipore) in PBS for one hour at room temperature, and 30, 60, or 100 μl of CHO-K1 culture supernatant for each mutant, or 1 μg/ml of wild-type hVEGF₁₂₁, recombinant hVEGF₁₆₅, or recombinant mVEGF₁₆₅, was added to appropriate wells. After one hour of incubation, the plate was washed and incubated with a biotinylated goat polyclonal anti-VEGF antibody for one hour at room temperature. Detection was performed with HRP-conjugated streptavidin, followed by TMB chromogenic substrate (Calbiochem) using manufacturer protocol.

human VEGF165 [6] = molecular target: T1, human VEGF165; experiment: cell-based or functional assay; remark: listed apart in the source
Target sequence in this assay (P15692 other isoform, or with tags, fused parts or gaps limits assumed): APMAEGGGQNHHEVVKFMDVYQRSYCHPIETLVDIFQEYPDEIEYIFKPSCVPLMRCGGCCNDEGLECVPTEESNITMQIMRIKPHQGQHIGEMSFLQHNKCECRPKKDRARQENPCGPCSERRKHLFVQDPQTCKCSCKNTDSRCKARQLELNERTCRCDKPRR

human VEGF165 [7] = molecular target: T1, human VEGF165; experiment: Biacore 2000, IgG2 captured on Protein A/G, hVEGF165 injected, 1:1 fit
Method: as §1

hVEGF121-G88S [8] = molecular target: T3, hVEGF121-G88S (human, UniProt P15692-9 27-147, G88S); experiment: sandwich ELISA, antibody coated, CHO-K1 supernatant
T3 construct: Transiently expressed in CHO-K1 cells; culture supernatant used
T3 sequence (looked up): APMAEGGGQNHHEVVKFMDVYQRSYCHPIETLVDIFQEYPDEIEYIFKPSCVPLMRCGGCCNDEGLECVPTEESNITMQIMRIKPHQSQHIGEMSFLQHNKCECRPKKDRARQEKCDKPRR

human VEGF165 [9] = molecular target: T1, human VEGF165; experiment: Biacore 2000, hVEGF165 amine-coupled on C1 chip, antibody injected, 1:1 fit
Method: (§5) The VEGF binding affinity of these IgGs was tested on a Biacore 2000® by injecting the antibodies over a very low density antigen surface. Human or murine VEGF₁₆₅ was immobilized via standard amine coupling methods to flow cells on a C1 (planar carboxy surface) chip. Approximately 85 RU of each antigen was immobilized and a reference flow cell was activated and blocked. Antibodies were injected over the chip surface for 400 seconds at two different concentrations, after which dissociation was monitored. Data was analyzed by Scrubber® using double referencing and fitting with a 1:1 interaction. Regenerations were performed with 90 mM HCl with 500 mM NaCl.
Target sequence in this assay (P15692 other isoform, or with tags, fused parts or gaps limits assumed): as the sequence (P15692 other isoform, or with tags, fused parts or gaps limits assumed) above

hVEGF121-M81A = molecular target: T4, hVEGF121-M81A (human, UniProt P15692-9 27-147); experiment: sandwich ELISA, antibody coated
T4 construct: Transiently expressed in CHO-K1 cells; culture supernatant used
T4 sequence (looked up): T3 sequence (looked up) with M81A, S88G
Method: (§6) Mutants were transiently expressed in CHO-K1 cells, and cell supernatants were collected for binding analysis by ELISA.
as §4

hVEGF121-Q89A = molecular target: T5, hVEGF121-Q89A (human, UniProt P15692-9 27-147, Q89A); experiment: sandwich ELISA, antibody coated
T5 construct: Transiently expressed in CHO-K1 cells; culture supernatant used
T5 sequence (looked up): T3 sequence (looked up) with S88G, Q89A
Method: as §6, §4

hVEGF121-G92A = molecular target: T6, hVEGF121-G92A (human, UniProt P15692-9 27-147, G92A); experiment: sandwich ELISA, antibody coated
T6 construct: Transiently expressed in CHO-K1 cells; culture supernatant used
T6 sequence (looked up): T3 sequence (looked up) with S88G, G92A
Method: as §6, §4

human VEGF165 [10] = molecular target: T1, human VEGF165; experiment: sandwich ELISA, antibody coated
Method: as §6, §4

hVEGF121-G88S [11] = molecular target: T3, hVEGF121-G88S; experiment: sandwich ELISA, antibody coated
Method: as §6, §4

wild-type hVEGF121 = molecular target: T7, wild-type hVEGF121 (human, UniProt P15692-9 27-147); experiment: sandwich ELISA, antibody coated
T7 sequence (looked up): T3 sequence (looked up) with S88G
Method: as §6, §4

human VEGF165 [12] = molecular target: T1, human VEGF165; experiment: cell-based or functional assay; remark: listed apart in the source
murine VEGF165 [13] = molecular target: T2, murine VEGF165; experiment: Biacore 2000, mVEGF165 amine-coupled on C1 chip, antibody injected
Method: as §5

murine VEGF165 [14] = molecular target: T2, murine VEGF165; experiment: Biacore; IgG2, Biacore: weak binding, KD >100 nM
human VEGF165 [15] = molecular target: T1, human VEGF165; experiment: Biacore, IgG2 (summary table)
Method: as §1

Row | Binder | EC50 (human VEGF165 [2]) [µg/mL] | EC50 (human VEGF165 [3]) [µg/mL] | HPP: sf21-hVEGF165, IgG2 (IC50) (human VEGF165 [4]) [µg/mL] | fold binding over CHO background (murine VEGF165 [5]) [fold] | Kd (human VEGF165 [7]) [nM] | koff (human VEGF165 [7]) [s⁻¹] | kon (human VEGF165 [7]) [M⁻¹ s⁻¹] | binding result (hVEGF121-G88S [8]) | Raw data (ELISA signal) (hVEGF121-M81A) | fold binding over CHO background (hVEGF121-M81A) [fold] | Raw data (ELISA signal) (hVEGF121-Q89A) | fold binding over CHO background (hVEGF121-Q89A) [fold] | Raw data (ELISA signal) (hVEGF121-G92A) | fold binding over CHO background (hVEGF121-G92A) [fold] | Raw data (ELISA signal) (human VEGF165 [10]) | fold binding over CHO background (human VEGF165 [10]) [fold] | Raw data (ELISA signal) (hVEGF121-G88S [11]) | fold binding over CHO background (hVEGF121-G88S [11]) [fold] | Raw data (ELISA signal) (wild-type hVEGF121) | fold binding over CHO background (wild-type hVEGF121) [fold] | also measured
1 | B1 | 0.159 | 0.129 | 0.15 | 0.7 | 1.24 | 0.000286 | 230000 | no binding | 0.868 | 9.5 | 0.319 | 3.5 | 2.08 | 22.8 | 2.09 | 23 | 0.0778 | 0.9 | 2.65 | 29.1 | Kd (human VEGF165 [1]): 1.24 to 1.71 nM; HUVEC proliferation, geometric mean IC50 (human VEGF165 [6]): 1320 pM; Kd (human VEGF165 [9]): 1.71 nM; koff (human VEGF165 [9]): 0.000335 s⁻¹; kon (human VEGF165 [9]): 193000 M⁻¹ s⁻¹; Inhibition of HUVEC proliferation, EC50 (µg/ml), HEK 293 hVEGF165 (human VEGF165 [12]): 0.66 µg/mL; Kd (murine VEGF165 [13]): 197 nM; Kd (murine VEGF165 [14]): > 100 nM
2 | B2 | 0.121 | 0.173 | 0.24 | 1.1 | 1.66 | 0.000279 | 168000 | no binding | 1.22 | 13.4 | 0.296 | 3.3 | 2.78 | 30.5 | 2.66 | 29.2 | 0.0951 | 1 | 2.9 | 31.8 | Kd (human VEGF165 [15]): 1.66 to 1.7 nM; HUVEC Proliferation Potency (HPP): HEK293-hVEGF165, IgG2 (IC50) (human VEGF165 [4]): 0.68 µg/mL; Inhibition of HUVEC proliferation, EC50 (µg/ml), HEK 293 hVEGF165 (human VEGF165 [12]): 0.68 µg/mL; Kd (murine VEGF165 [14]): > 100 nM
